Experimental data from publication PMC6677171 (Life Science Alliance, 2019).
Each block holds one binder with its values, some of them ahead of it.

B1: Mis19 C-terminal peptide (residues 97–112) F102S (peptide, UniProt O42995 97-112, looked up)
peptide: LHNRVSLRRNVRAVKM
notes: the text ties the value to the F102S (eic1-1) mutant; also called F102 mutant; eic1-1 mutation
B2: Mis19C (Mis19 residues 52–112) (domain or fragment, S. pombe, UniProt O42995 52-112, looked up)
chain: PRVYETELLVLRFREFGVKDNHNHPINLHSLRSKSLIRAQGKKLDLHNRVFLRRNVRAVKM
notes: holds sites A, B and C; Cannot be expressed and purified without Mis16; also called Mis19^52-C; N-terminal truncation of Mis19; source: insect cells, co-expressed with Mis16
B3: Mis18 (S. pombe) (natural protein, UniProt Q9P802 1-194, looked up)
chain: MSQTETSHSGYIDFKKESQPSVFQCKKCFQIVGDSNAWVISHREYLSFTLSDAVENSVRVEDTFKRSDDGLCVYSELSCTRCNEVIGKVYNSTPIYLDDIRDMYTFSMDKLQAYQLGNKTVNPEGLTRYQVDLEMREDIIKLKSFCLSLYEKFELHDETLRSVKETISSLKKPKIEGKEGKKEKARTYSKRTRK
notes: Mis18, S. pombe, N-terminal YIPPEE domain and C-terminal coiled coil; 'Full-length' is said of the co-expressed complex; source: insect cells; co-expressed with Mis16 and Mis19 and co-purified, or purified alone for the pull-down
B4: Mis19^1–44 peptide (peptide, UniProt O42995 1-44, looked up)
peptide: MDLMPLEKARAIEIAFDNVFHNTKIPDNLQQFDAILKRLERRRF
notes: Mis19 (Eic1), S. pombe, residues 1–44 (motifs 1 and 2); also called wild-type peptide
B5: Mis19 (S. pombe), full length (natural protein, UniProt O42995 1-112, looked up)
chain: MDLMPLEKARAIEIAFDNVFHNTKIPDNLQQFDAILKRLERRRFIPTENQKPRVYETELLVLRFREFGVKDNHNHPINLHSLRSKSLIRAQGKKLDLHNRVFLRRNVRAVKM
notes: Mis19 (also known as Eic1), S. pombe; only handled in complex; also called Eic1; source: insect cells (MultiBac), co-expressed with Mis16 and Mis18, co-purified

Assays:
[1] = molecular target: T1, Mis16 (S. pombe), full length, affinity tag removed (S. pombe, UniProt O94244 1-430); assay: ITC; competition: Mis16 preincubated with one peptide (H4α1 or Mis19α2) before titration with the second; apparent KD; conditions: both partners purified
T1 construct: Mis16, S. pombe, WD40-repeat protein, homologue of human RbAp46/48; codon-optimised gene; Used where the methods or text say the tag was removed (crystals, MALLS of the untagged complex) and, by the general purification protocol, for ITC and AUC; source: insect cells (baculovirus made in Sf21, expressed in Hi5), purified (Strep-Tactin, anion exchange, TEV cleavage, SEC); not shown: double …

[2] = molecular target: T1, Mis16 (S. pombe), full length, affinity …; assay: ITC; iTC200, 30°C; 50 mM Tris pH 7.5, 100 mM NaCl, 4% glycerol, 0.5 TCEP; 26 μM protein in the cell, 260 μM peptide injected; conditions: both partners purified
[3] = molecular target: T1, Mis16 (S. pombe), full length, affinity …; assay: SEC-MALS; 200 μg of purified Mis16–Mis19C complex on Superose 6 Increase 10/300 coupled to a Wyatt Dawn 8+ MALS system; conditions: both partners purified
[4] = molecular target: the molecule itself; assay: AUC; sedimentation velocity of the purified co-expressed Mis16–Mis18–Mis19 complex at two concentrations; 150 mM NaCl, 25 mM Tris–HCl pH 8.0, 2 mM TCEP; 50,000 rpm, 4°C; c(s) in SEDFIT
Mis18 (S. pombe) = molecular target: B3; assay: SEC; competition: preformed Mis16–Mis18–Mis19 complex challenged with peptides from the Mis19 N terminus; dissociation seen as separate Mis16–19 and Mis18 peaks; conditions: both partners purified
[5] = molecular target: T1, Mis16 (S. pombe), full length, affinity …; assay: AUC; sedimentation velocity of the purified co-expressed Mis16–Mis18–Mis19 complex at two concentrations; 150 mM NaCl, 25 mM Tris–HCl pH 8.0, 2 mM TCEP; 50,000 rpm, 4°C; c(s) in SEDFIT; conditions: both partners purified

apparent KD with Mis16 preincubated with H4α1 [1]: 2500 nM
Kd [2]: 8 nM
Binder: LHNRVFLRRNVRAVKM (peptide, UniProt O42995 97-112, looked up, also called Mis19 site C peptide) [Mis19α2 peptide (Mis19 residues 97–112)]

Binder: B1
Kd [2]: ~301 nM

Binder: B2
stoichiometry N [3]: 1

Binder: B3
stoichiometry N [4]: 4

Binder: B4
binding result (Mis18 (S. pombe)): binds

Binder: B5
binding result [5]: binds
